Source: article PMC2571106 (BMC Microbiology, 2008)

B1: rSlpA_(146-435) (domain or fragment, Lactobacillus brevis ATCC 8287, UniProt Q05044 176-465, looked up)
chain: LYGVAKDTKFTVDQAATKTREGSLYYHVTATNGSGISGWIYAGKGFSTTATGTQVLGGLSTDKSVTATNDNSVKIVYRTTDGTQVGSNTWVTSTDGTKAGSKVSDKAADQTALEAYINANKPSGYTVTNPNAADATYGNTVYATVSQAATSKVALKVSGTPVTTALTTADANDKVAANDTTANGSSVAGSTVYAAGTKLAQLTTDLTGEKGQVVTLTAIDTDLEDATFTGTTTYYSDLGKAYHYTYTYNKDSAASSNASTQFGSNVTGTLTATLVMGKSTATANGTTWFN
notes: numbers count on: the mature protein; Cloned through an NcoI site; the primer may add residues at the N-terminus (surmise from primer 1602); source: E. coli BL21(DE3), purified (His Trap HP in 4 M GHCl or 6 M urea)
B2: rSlpA_(179-435) (domain or fragment, Lactobacillus brevis ATCC 8287, UniProt Q05044 209-465, looked up)
chain: SGISGWIYAGKGFSTTATGTQVLGGLSTDKSVTATNDNSVKIVYRTTDGTQVGSNTWVTSTDGTKAGSKVSDKAADQTALEAYINANKPSGYTVTNPNAADATYGNTVYATVSQAATSKVALKVSGTPVTTALTTADANDKVAANDTTANGSSVAGSTVYAAGTKLAQLTTDLTGEKGQVVTLTAIDTDLEDATFTGTTTYYSDLGKAYHYTYTYNKDSAASSNASTQFGSNVTGTLTATLVMGKSTATANGTTWFN
notes: numbers count on: the mature protein; also called rSlpA C-terminal domain; source: E. coli BL21(DE3), purified (His Trap HP in 4 M GHCl or 6 M urea)
B3: full length recombinant SlpA (SlpA 1-435), S-layer protein of Lactobacillus brevis ATCC 8287 (natural protein, UniProt Q05044 31-465, looked up)
chain: KSYATAGAYSTLKTDAATRNVEATGTNALYTKPGTVKGAKVVASKATMAKLASSKKSADYFRAYGVKTTNRGSVYYRVVTMDGKYRGYVYGGKSDTAFAGGIKSAETTTKADMPARTTGFYLTDTSKNTLWTAPKYTQYKASKVSLYGVAKDTKFTVDQAATKTREGSLYYHVTATNGSGISGWIYAGKGFSTTATGTQVLGGLSTDKSVTATNDNSVKIVYRTTDGTQVGSNTWVTSTDGTKAGSKVSDKAADQTALEAYINANKPSGYTVTNPNAADATYGNTVYATVSQAATSKVALKVSGTPVTTALTTADANDKVAANDTTANGSSVAGSTVYAAGTKLAQLTTDLTGEKGQVVTLTAIDTDLEDATFTGTTTYYSDLGKAYHYTYTYNKDSAASSNASTQFGSNVTGTLTATLVMGKSTATANGTTWFN
notes: numbers count on: the mature protein; Two full length constructs were made: pKTH5198 (C-terminal linker-His6) and pKTH5199 (N-terminal His6-linker); no cleavage is mentioned; also called rSlpA; nontruncated rSlpA; source: E. coli BL21(DE3), purified (His Trap HP in 4 M GHCl or 6 M urea)
B4: wild type SlpA isolated from L. brevis ATCC 8287 cells (natural protein, Lactobacillus brevis ATCC 8287, UniProt Q05044 31-465, looked up)
chain: B3 chain
notes: numbers count on: the mature protein; source: extracted from L. brevis ATCC 8287 cells with 2 M GHCl, dialysed

Tests used:
[1] = target: the molecule itself; assay: precipitation after dialysis from GHCl (self-assembly test); affinity purified protein dissolved in 5 M GHCl at 1 mg/ml, dialysed against PBS for two hours at 4°C, centrifuged 16,000 x g 30 min, precipitate checked by SDS-PAGE
[2] = target: the molecule itself; assay: transmission electron microscopy of self-assembly products (negative stain); 1 mg purified, lyophilised recombinant protein in 1 ml 5 M GHCl, 50 mM Tris-HCl pH 7.2, dialysed against 10 mM CaCl2 in distilled water for 18 h; negative stain with 2,5% uranyl acetate
[3] = target: the molecule itself; assay: transmission electron microscopy of self-assembly products (negative stain); SlpA extracted from L. brevis cells with 2 M GHCl, 1 mg/ml, dialysed against water with 5 mM CaCl2 and then water at +4°C; pelleted self-assembly products in 25 mM Tris-HCl pH 8.0

Row | Protein | binding result [1] | other results
1 | B1 | binds | –
2 | B2 | binds | –
3 | B3 | – | binding result [2]: binds
4 | B4 | – | binding result [3]: binds
